Laboratory results as given in patent US20100323969 (published 2010).
Like-named read-outs stand apart in the source and are kept apart here. Ends that are not written are not given here. * marks the point of attachment. Galloyl = O=C(c1cc(O)c(O)c(O)c1)*

T1: human P-selectin IgG-Fc chimera (human, UniProt P16109)
T1 chain: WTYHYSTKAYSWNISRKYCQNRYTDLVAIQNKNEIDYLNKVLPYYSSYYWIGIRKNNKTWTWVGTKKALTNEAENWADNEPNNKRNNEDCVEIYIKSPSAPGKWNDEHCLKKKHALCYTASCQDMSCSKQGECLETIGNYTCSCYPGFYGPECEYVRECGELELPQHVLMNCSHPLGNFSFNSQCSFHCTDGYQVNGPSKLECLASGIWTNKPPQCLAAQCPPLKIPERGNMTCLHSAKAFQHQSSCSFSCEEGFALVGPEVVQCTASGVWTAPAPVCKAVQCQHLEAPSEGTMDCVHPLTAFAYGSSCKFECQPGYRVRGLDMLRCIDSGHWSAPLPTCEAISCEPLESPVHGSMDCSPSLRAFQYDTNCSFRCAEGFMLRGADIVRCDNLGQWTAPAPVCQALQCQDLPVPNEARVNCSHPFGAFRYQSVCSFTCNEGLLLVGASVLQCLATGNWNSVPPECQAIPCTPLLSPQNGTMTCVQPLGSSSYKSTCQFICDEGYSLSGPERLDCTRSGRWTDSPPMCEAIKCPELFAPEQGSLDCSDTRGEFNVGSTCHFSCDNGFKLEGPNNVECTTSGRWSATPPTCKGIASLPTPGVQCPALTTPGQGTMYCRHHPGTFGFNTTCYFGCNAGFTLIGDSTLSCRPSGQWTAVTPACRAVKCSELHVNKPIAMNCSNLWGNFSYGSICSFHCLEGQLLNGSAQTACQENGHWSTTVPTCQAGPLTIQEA


Assays:
[1] = molecular target: T1, human P-selectin IgG-Fc chimera; experiment: competition ELISA
[2] = molecular target: T1, human P-selectin IgG-Fc chimera; experiment: competition ELISA

Row | Binder | IC50 [1] [µM] | IC50 [2] [µM]
1 | Galloyl-WVDV [Compound 12 (GA-WVDV)] | 0.037 | 0.0371
2 | DWVDV [A129] | 16 | –
3 | KWVDV [A130] | 28 | –
4 | EWVDV [A29] | 8 | –
5 | Galloyl-EWVDV [Compound 13 (GA-EWVDV)] | 0.031 | –
6 | AWVDV [A131] | 27 | –
7 | CDVEWVDVSSLEWDLPC [TM11] | 2 | –
